{
  "source": "paper PMC4474781",
  "about": "(Environmental microbiology, 2015)",
  "biological_target": "T1, oxidoreductase FAD/NAD(P)-binding subunit (Dred_1685), His6-tagged, co-expressed with Dred_1686 (Desulfotomaculum reducens MI-1, UniProt A4J559 1-262)",
  "T1 sequence (looked up)": "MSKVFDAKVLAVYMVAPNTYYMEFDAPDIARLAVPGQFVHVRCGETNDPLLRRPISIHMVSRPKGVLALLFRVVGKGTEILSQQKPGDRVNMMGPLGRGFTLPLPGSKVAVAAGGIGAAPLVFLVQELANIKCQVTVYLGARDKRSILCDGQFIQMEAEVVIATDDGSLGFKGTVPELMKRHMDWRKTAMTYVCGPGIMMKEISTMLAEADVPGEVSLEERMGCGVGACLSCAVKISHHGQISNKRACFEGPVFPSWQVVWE",
  "assay": "pull-down",
  "data": [
    {"binder": "dihydroorotate dehydrogenase 1B (Dred_1686), untagged, co-expressed with His6-Dred_1685 (enzyme, Desulfotomaculum reducens MI-1, UniProt A4J560 1-304, looked up) MKLNLAVKIGQLDMINPVTTASGTFGYGQEYSPYVDLNQLGAIVVKGTTLEPREGNPTPRLVETPSGILNSIGLQNSGVDYLLEHYVPFFKKLQTNVIVNISGNTAEEYGQLAARLDEADGIAALEVNISCPNVKKGGMAFGGDFRTAAEVTKVVKNSTALPVIVKLSPNVTDIAEIARAVEGAGADGLSVINTLLGMAIDVRKRKPVLGNTMGGLSGPAVKPVALRAVWQVYKAVHIPIIGMGGIMNATDALEFILAGAQAVSVGTANFVNPYATKEIIQGMEKYLMENGIGDINELVGAAHL", "values": [
      {"measurement": "stoichiometry N", "value": 1}
    ]}
  ]
}
